Results as given in publication PMC3418449.
Read-outs that look alike come from different tables or passages of the source.

Assays:
[1] = biological target: T1, GRK2 (S670A), flow cytometry and crystallography (bovine, UniProt P21146 1-689, S670A); assay: competition
[2] = biological target: T1, GRK2 (S670A), flow cytometry and …; assay: competition; remark: listed apart in the source
[3] = biological target: T1, GRK2 (S670A), flow cytometry and …; assay: flow cytometry bead binding
[4] = biological target: T1, GRK2 (S670A), flow cytometry and …; assay: competition; remark: listed apart in the source
[5] = biological target: GRK2-H280A, flow cytometry (UniProt P21146 1-689, H280A); assay: flow cytometry bead binding
[6] = biological target: GRK2-D335A, flow cytometry (UniProt P21146 1-689, D335A); assay: flow cytometry bead binding
[7] = biological target: T2, GRK1 truncated at residue 535 (bovine, UniProt P28327 1-535); assay: competition
T2 sequence: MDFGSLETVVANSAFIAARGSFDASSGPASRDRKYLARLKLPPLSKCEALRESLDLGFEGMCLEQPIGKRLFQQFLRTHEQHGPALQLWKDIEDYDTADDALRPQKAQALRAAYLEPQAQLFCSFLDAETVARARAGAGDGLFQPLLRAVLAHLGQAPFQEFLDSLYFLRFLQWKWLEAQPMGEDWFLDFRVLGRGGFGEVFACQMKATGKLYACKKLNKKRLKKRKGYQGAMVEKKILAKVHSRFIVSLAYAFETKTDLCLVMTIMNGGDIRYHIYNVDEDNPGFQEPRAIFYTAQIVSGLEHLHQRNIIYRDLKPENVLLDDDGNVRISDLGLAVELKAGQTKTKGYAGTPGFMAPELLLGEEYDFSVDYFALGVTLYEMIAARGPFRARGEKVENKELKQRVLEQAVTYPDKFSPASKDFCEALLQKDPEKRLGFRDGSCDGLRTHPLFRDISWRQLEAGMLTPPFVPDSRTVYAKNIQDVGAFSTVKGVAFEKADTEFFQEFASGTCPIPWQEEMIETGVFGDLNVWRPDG

[8] = biological target: GRK6 palmitoylation-deficient (human, UniProt P43250 1-576, C561S;C562S;C565S); assay: competition
[9] = biological target: GRK2-FG-6A, flow cytometry (UniProt P21146 1-689, R392A;H394A;K395A;K397A;K399A;H400A); assay: competition
[10] = biological target: T1, GRK2 (S670A), flow cytometry and …; assay: competition; remark: listed apart in the source
[11] = biological target: T1, GRK2 (S670A), flow cytometry and …; assay: flow cytometry bead binding; remark: listed apart in the source
[12] = biological target: T1, GRK2 (S670A), flow cytometry and …; assay: flow cytometry bead binding; remark: listed apart in the source

T1 sequence (P21146 whole entry S670A): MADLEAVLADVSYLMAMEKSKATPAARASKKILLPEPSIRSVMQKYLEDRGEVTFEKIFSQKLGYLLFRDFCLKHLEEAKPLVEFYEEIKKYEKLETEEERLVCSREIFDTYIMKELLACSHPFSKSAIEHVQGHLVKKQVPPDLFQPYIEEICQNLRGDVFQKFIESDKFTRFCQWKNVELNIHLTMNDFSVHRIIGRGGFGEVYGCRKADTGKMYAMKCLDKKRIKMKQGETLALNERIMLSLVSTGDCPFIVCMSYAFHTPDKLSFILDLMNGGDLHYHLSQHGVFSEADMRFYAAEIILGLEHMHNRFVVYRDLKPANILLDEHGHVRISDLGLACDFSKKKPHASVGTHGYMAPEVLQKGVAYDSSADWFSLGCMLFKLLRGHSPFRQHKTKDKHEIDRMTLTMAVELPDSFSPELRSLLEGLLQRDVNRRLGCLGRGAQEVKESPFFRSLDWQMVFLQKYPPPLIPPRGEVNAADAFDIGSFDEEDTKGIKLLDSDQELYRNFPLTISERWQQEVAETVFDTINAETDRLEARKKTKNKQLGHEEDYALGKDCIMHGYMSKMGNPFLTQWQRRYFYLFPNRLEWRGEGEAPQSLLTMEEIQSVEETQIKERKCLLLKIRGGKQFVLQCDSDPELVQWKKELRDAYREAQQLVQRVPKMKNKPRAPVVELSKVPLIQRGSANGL
Chain of GRK2-D335A, flow cytometry (P21146 whole entry D335A, the tested form may be a part): as the sequence (P21146 whole entry S670A) above, with D335A, A670S counted along it
Chain of GRK2-H280A, flow cytometry (P21146 whole entry H280A): as the sequence (P21146 whole entry S670A) above, with H280A, A670S counted along it
Chain of GRK6 palmitoylation-deficient (P43250 whole entry C561S/C562S/C565S): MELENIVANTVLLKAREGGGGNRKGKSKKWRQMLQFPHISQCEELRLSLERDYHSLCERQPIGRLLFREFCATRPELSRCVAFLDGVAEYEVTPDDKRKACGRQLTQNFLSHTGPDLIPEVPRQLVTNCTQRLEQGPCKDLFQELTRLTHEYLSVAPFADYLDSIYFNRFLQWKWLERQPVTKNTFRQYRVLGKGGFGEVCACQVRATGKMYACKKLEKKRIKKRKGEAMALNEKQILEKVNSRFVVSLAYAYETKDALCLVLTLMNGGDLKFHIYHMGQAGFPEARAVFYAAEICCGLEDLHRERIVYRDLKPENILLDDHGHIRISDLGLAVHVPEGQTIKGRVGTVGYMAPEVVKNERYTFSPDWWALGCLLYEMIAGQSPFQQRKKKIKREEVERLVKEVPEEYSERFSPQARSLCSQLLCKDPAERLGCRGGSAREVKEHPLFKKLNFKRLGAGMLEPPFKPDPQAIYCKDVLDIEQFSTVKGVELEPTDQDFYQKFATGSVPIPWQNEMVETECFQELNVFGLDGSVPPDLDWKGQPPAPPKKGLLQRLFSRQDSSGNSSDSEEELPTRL
Chain of GRK2-FG-6A, flow cytometry (P21146 whole entry R392A/H394A/K395A/K397A/K399A/H400A): as the sequence (P21146 whole entry S670A) above, with R392A, H394A, K395A, K397A, K399A, H400A, A670S counted along it

AGACCAUACGGGAGAGAAACUU (structured_RNA) [C13.22] showed an IC50 [1] of 46 ± 9 nM.

GGCAGACCAUCCGGGAGAGAAACUUGCC (structured_RNA) [C13.28A51C]: no binding [2].

With CCAUACGGGAGAGAAACU (ssRNA) [C13.18] the Kd [3] was 35 ± 5 nM and the IC50 [4] was 100 ± 41 nM.

Work on GGGCAGACCAUACGGGAGAGAAACUUGCC (structured_RNA) [C13.29] yielded an IC50 [1] of 0.91 ± 0.07 nM.

In the case of GGCAGACCAUACGGGAGAGAAACUUGCC (ssRNA) [C13.28], the binding result [5] is reported as “binds”, the binding result [6] is reported as “binds” and the IC50 [1] is reported as 1.5 ± 0.1 nM. The IC50 [7] was 590 ± 160 nM, the IC50 [8] was 210 ± 10 nM and the IC50 [9] was 510 ± 170 nM. For the same binder, the IC50 [10] was 3.3 ± 0.3 nM, the Kd [11] was 1.2 ± 0.6 nM and the Kd [12] was 3.8 ± 1.2 nM. The IC50 [4] was 0.44 ± 0.19 nM.

With GGGUAGCACAGACCAUACGGGAGAGAAACUUGUGCAACCC (structured_RNA) [C13.40] the IC50 [1] was 1.3 ± 0.1 nM.

In the case of GGCGACCAUACGGGAGAGAAACUGCC (structured_RNA) [C13.26], the IC50 [1] is reported as 0.9 ± 0.03 nM.
